Assay in all cases: EMSA
Data set [1] has as its system T1, Dcp1 (Saccharomyces cerevisiae).
T1 sequence: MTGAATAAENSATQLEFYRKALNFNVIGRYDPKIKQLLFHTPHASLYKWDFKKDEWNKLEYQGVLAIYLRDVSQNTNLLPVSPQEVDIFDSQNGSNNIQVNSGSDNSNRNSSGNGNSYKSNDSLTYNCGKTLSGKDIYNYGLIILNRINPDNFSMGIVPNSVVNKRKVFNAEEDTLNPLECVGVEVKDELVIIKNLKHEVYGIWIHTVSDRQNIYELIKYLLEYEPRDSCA
The following applies: EMSA: 10 nM Alexa Fluor 647 RPL41A RNA, 300 mM KOAc, 10 mM MES pH 7 or 5.8, 5 mM BME; temperature not given in material. A general note: Mobility shift assays separate free from complexed probe on a gel.

The test system of data set [2] is T2, Dcp2 (Saccharomyces cerevisiae).
T2 sequence: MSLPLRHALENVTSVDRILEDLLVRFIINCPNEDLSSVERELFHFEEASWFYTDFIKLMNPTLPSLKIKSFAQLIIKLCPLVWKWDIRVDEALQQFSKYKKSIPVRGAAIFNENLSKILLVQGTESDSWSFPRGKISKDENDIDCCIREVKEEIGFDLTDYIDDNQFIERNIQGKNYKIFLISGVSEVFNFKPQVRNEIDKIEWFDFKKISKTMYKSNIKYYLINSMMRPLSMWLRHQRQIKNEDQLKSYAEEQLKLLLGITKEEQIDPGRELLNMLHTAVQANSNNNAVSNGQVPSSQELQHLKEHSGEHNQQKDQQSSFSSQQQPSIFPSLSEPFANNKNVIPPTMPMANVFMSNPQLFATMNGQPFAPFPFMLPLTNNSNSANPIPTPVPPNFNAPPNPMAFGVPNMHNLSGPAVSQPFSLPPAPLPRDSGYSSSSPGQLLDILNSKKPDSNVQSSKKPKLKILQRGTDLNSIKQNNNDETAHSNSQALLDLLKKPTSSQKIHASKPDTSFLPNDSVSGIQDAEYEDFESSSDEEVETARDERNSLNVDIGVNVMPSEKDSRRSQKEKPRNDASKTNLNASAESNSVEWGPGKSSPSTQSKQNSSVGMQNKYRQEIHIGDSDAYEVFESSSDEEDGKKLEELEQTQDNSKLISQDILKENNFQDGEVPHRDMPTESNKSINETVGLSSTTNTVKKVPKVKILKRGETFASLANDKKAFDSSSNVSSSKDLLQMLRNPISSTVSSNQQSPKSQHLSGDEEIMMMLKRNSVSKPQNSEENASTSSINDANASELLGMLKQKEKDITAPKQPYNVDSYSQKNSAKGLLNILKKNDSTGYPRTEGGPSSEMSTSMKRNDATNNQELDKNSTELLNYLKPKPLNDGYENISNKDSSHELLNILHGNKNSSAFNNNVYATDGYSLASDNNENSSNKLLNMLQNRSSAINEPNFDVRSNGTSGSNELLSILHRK
To be noted: EMSA: 10 nM Alexa Fluor 647 RPL41A RNA, 300 mM KOAc, 10 mM MES pH 7 or 5.8, 5 mM BME, temperature not given in material.

Data set [3] relates to T3, Dcp2 1-300 (Saccharomyces cerevisiae).
T3 sequence: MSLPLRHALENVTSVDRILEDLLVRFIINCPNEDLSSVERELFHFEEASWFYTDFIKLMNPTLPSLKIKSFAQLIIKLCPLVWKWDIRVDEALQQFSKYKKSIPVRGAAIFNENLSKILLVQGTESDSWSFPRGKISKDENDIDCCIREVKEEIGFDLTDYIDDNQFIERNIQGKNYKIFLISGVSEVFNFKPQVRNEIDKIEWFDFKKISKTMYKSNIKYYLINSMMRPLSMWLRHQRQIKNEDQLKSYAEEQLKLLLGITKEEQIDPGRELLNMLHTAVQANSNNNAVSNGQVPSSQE
The following applies: EMSA: 10 nM Alexa Fluor 647 RPL41A RNA, 300 mM KOAc, 10 mM MES pH 7 or 5.8, 5 mM BME; temperature not given in material.

The subject of data set [4] is Dcp2 H237A (Saccharomyces cerevisiae). To be noted: pH 5.8; EMSA: 10 nM Alexa Fluor 647 RPL41A RNA, 300 mM KOAc, 10 mM MES pH 7 or 5.8, 5 mM BME; temperature not given in material.

The source of these data is PMC10083542.

Where only a bound is given, the exact number is not on record here.

A word on the Kd: it is the constant that tells how readily two partners part at equilibrium. High values mean lower affinity, low ones higher affinity. On to RPL41A RNA (60 nt), for which the Kd in data set [1] and in data set [3] was above 20 µM each time. In data set [2], the binding signal (fold tighter at pH 5.8 than at pH 7) is above 16. In data set [4], this substance displayed a binding signal (fold lower affinity than wild type) of 2.
